The series in a line: soluble on expression in E. coli; label from the status in PepcDB or PDB records.
As for “MRGSHHHHHHTDPALRAIVISRHVAIPDGELEITAIRAQGAGGQHVNKTSTAIHLRFDIRASSLPEYYKERLLAASHHLISSDGVIVIKAQEYRSQELNREAALARLVAMIKELTTEKKARRPTRPTRASKERRLASKAQKSSVKAMRGKVRSGREGLCGR”, the “soluble on expression in E. coli” value is “soluble”.

In the case of “MRGSTRDQNGTWEMESNENFEGYMKALDIDFATRKIAVRLTQTKVIDQDGDNFKTKTTSTFRNYDVDFTVGVEFDEYTKSLDNRHVKALVTWEGDVLVCVQKGEKENRGWKQWIEGDKLYLELTCGDQVCRQVFKKKLVPR”, the “soluble on expression in E. coli” value is given as “soluble”.

Consider “MRHDGRQHDELRPITFDLDFISHPEGSVLITAGNTKVICNASVEDRVPPFLRGGGKGWITAEYSMLPQATNQQTIQESSKGKISGRTMEIQRLIGRALRAVVDLEKLGERTIWIDCDVIQADGGTRTASITGAFLAMAIAIGKLIKAGTIKTNPITDFLAAISVGIDKEQGILLDLNYEEDSSAEVDMNVIMTGSGRFVELQGTGEEATFSREDLNGLLGLAEKGIQELIDKQKEVLGDSLPELK”, for which the “soluble on expression in E. coli” value was “soluble”.

Turning to “MRHNIKFKSKGTLKIRNTAQISLWKKCSDSMIADQTYLFINRVQDRRFDEESLRILELSLVAMNVKSFLEVRSRLRDFMRSESVVIFGELTGESMVAKLSVLEFFARAFALLGDMESCLAMRYEALNLRQLKSPSCLWLGVSHSEWTKFAVQSMENGFPSIAGKASENALLSLKKDSLIEPKSEDNSDILDAAEKVRRLRDSAASLTSSHSGIFIYIVSSLKFAVCNRLLTTF”, the “soluble on expression in E. coli” value was “soluble”.

As for “MRHRGGRGFRGWWLASTILLLVAEKPSHGYELAERLAEFGIEIPGIGHMGNIYRVLADLEESGFLSTEWDTTVSPPRKIYRITPQGKLYLREILRSLEDMKRRIETLEERIKRVLQEE”, the “soluble on expression in E. coli” value is recorded as “soluble”.

Consider “MRIEEDLKLGFKDVLIRPKRSTLKSRSDVELERQFTFKHSGQSWSGVPIIAANMDTVGTFSMASALASFDILTAVHKHYSVEEWQAFINNSSADVLKHVMVSTGTSDADFEKTKQILDLNPALNFVCIDVANGYSEHFVQFVAKAREAWPTKTICAGNVVTGEMCEELILSGADIVKVGIGPGSVCTTRVKTGVGYPQLSAVIECADAAHGLGGMIVSDGGCTTPGDVAKAFGGGADFVMLGGMLAGHEESGGRIVEENGEKFMLFYGMSSESAMKRHVGGVAEYRAAEGKTVKLPLRGPVENTARDILGGLRSACTYVGASRLKELTKRTTFIRVQEQENRIFNNL”, for which the “soluble on expression in E. coli” value is “soluble”.

Take “MRIHAFHRLYQYRQSISTKPFNARGCKVQRCPFCQVSEQHCLCELQPDIDSNVACMLIVSENEVFKPSNTGRLIADTVKETYVYQWNRTEPSQEMLDLLSNEDYLPVIVFPADYVDQPERLLDGLHTEHLHRTDGNSKKWLLIFIDGSWREARKIFRRSEFLQSLPVLSIEPECLSEYIMRRSENEQHLSTAEVATLVLKQAGENKASECLQLWFEAFRETYMLTKTRVKNDPNRPHLKRFKEWLKTESLEHHHHHH”: the “soluble on expression in E. coli” value is on record as “not soluble”.

“MRILFIGDVVGSPGRDMVKEYVPKLKTKYKPHFTIINGENAAHGKGLTEKIYHSLIQSGADAITMGNHTWDKKEIFDFIDDVPNLVRPANFPEGTPGKGITYVKANGKELAVINLQGRTFLPPLDDPFLKADELSPEAAKRTPYIFIDFHAEATSEKLALGWYTDGRASAVVGTHTHVQTADNRILPKGTAYITDVGMTGPYDGILGMDRETIIKRFKTNLPVRFTVAEGKTTLSGVVIDIDDQTKKAVKIERILINDDHMFFE”: the “soluble on expression in E. coli” value is given as “soluble”.

As to “MRILGEKVRQFRKRKGMSQKELADGICTQATISLIEKKSKIPSMKIMMKICNRLGIRLSEVIIENDDQLYRTFKKIDTLIRHTQLEEAQDVFQHIRPKQLRSNTDKKQYYYYEGYLQLVLNDNADEAIFNFGMLLNQFVKSSHDMFAILATLGTGLAYERKQAYDKAEIFVKQAVATLHTMDAQAMPMGDDDYLQNEILIYASAAQLYAKINFPEEALELIDLALKKAQESQSLYLLDRLYAQKAANEVVLNNVQSAHDHYYVAYALSLVTHNSSLTEKITKEMAEYHIAPLQVANDA”, the “soluble on expression in E. coli” value is recorded as “not soluble”.

Take “MRILLIEDDMLIGDGIKTGLSKMGFSVDWFTQGRQGKEALYSAPYDAVILDLTLPGMDGRDILREWREKGQREPVLILTARDALAERVEGLRLGADDYLCKPFALIEVAARLEALMRRTNGQASNELRHGNVMLDPGKRIATLAGEPLTLKPKEFALLELLMRNAGRVLSRKLIEEKLYTWDEEVTSNAVEVHVHHLRRKLGSDFIRTVHGIGYTLGEK”: the “soluble on expression in E. coli” value is recorded as “soluble”.

As for “MRILVSNDDGIFSPGIKALGLAMRALGEVFVVAPDMEQSAVGHGITVRRPLRFKHTQSAGFGEIPAYRVDGTPADCVVLGVHLLGRPDLVVSGINLGVNLGLDLTHSGTVAAALEGASLGIPSIAFSLDTSGEVLDFQEAARWALAIARAVGERGLPPGVLLNVNFPASRPKGLLVTRLSTHRFEDQVVERLDPEGKPYYWIAGTPAGEEEEGTDLWAVRRGYVSVTPVSLDLTAHGFLEALSGLLEGVAP”, the “soluble on expression in E. coli” value is listed as “soluble”.

“MRIQFEIKESLINILDQLMHSDFWATEIKEDESGKKIIKIKDLAYNLEAVAEVMGNEIFIRTALSKYTYRIYEVKGECWCEYVGAYRGFLEQKLLPIITPKENLLECEVLDSSILGGKQKTLREYAEDNLKLKKFREQNFGNNGFSKADHPRRVYDEFIKEDFIPEDKKGHSLNITKSAN”: the “soluble on expression in E. coli” value is listed as “not soluble”.

Regarding “MRIRLFAFCLLLGGCQSQLPPLPDWQSPEGRDDPQTGRIVELRSGVTLSPQQLVARLAAAPRVIVGEKHDNPDHHAVELWLAQALGEYRAQGSLLLEMLDPGQQPRVDAVRAQLGNGKPVANLEEALDWQKGWDWTQYGPLVSWAVAQPAPLLAANLQRSEIMRIYRERPPLPGTASRRDSVRLPLLAQIRESHCGMLPDDQLPAMLAVQQQRDRRMAERLRDAPRPAMLVAGSFHARRDLGVPVHLRDLGAEKGTQVLMLVEAGQAVTTREADYAWYTPAQPDKDYCAEMKKARLEHHHHHH”, the “soluble on expression in E. coli” value is on record as “not soluble”.

“MRISLKQLNVFTVIAQEKTMTKAAERLYITKPAVSLSLSELEKNLGYKVFDRVNNRLVLNSEGRQLLPLADELLERAEVIEHQFATDSQLTGSLNIGASDTIGNHIAPVLLSKFQQQYPCDIQQLFISNTAQIINRLLEFQLDIGLVEGKAHHPKLNMIEWRRDDMYLVCSPSHPLATKAQVTLDDLEHSTWLLREEGSGSREYFINHIAANLNDWHESLQLHTTEAIINCCAENMGLACLSQLAAQNAINDGRLVKLAYNKTLARQYWLLVHKEKYQTPLLQYFMNFIQQK”: the “soluble on expression in E. coli” value is “not soluble”.

“MRIVEEMVGKEVLDSSAKVIGKVKDVEVDIESQAIESLVLGKGGISEGLGLSKGETIVPYEMVKKIGDKILLKGPEE”: the “soluble on expression in E. coli” value is “not soluble”.

For the sequence “MRIVVTRPQRSGERTAAKLEALGHAPVLLPLFHPIHHGERATSALSDPAGAIAVTSAEALRALATCEEQLAPYLSKPLFAVGGATAEAAQETGFEQIFTASGDALGLTVLVKQHRAFLTEEEPLLYLAGRPRGSVFEEGLAAAGIPFRTVDCYEMLPSDISENTLETTLLDTTADMVLLYSSEAARAFFHHVSADKYVTALAATKFICISRNVLFLVPEIFRANAKAAEEPSEAAMFELLHHNSGTLEHHHHHH”, the “soluble on expression in E. coli” value was “soluble”.

In the case of “MRKAAVIGGSLGGLFAANLLLRAGWDVHVHERVHDELDGRGAGIVTHPELLDVLRRIGVAPTESIGIEVARRVTLDLDGSVLASRALPQLLTAWGRLFSILRTRFPAERYHRGQALESLEQDERRALLRFADGARAEVDLVVAADGLRSTLRQALLPQARPAYAGYVAWRGLVDEASLSERTRRELCPYFAFGLPAHEQMIAYPVAGTGSGAQDAARRFNFVWYRPADEHTTFRDMVTDAQGQAWMDGIPPPLIRPEIVAQARQAAAQVLAPQFGEVVAKTANLFFQPIFDLESPRLALGRVALLGDAAFVARPHCGMGVTKAAGDARALAYALAGTPDIGAALQAYEDERLPFGKFIVGHARDLGRYMQAQLRDDAEREMAERYRTPEAIMRETAVAPAWRLEHHHHHH”, the “soluble on expression in E. coli” value is given as “not soluble”.

For “MRKEKIRLEYMLKAGSGNIVWSIISTPSGLETWFADKVIFKDKVFTFYWGKTETRQAEVTNFRVNSFIRFRWLDDEDPKAYFELKMVYNELTSDYMLEVIDWAAPDEVEDTKELWDSEIEKLKRVSGLLEHHHHHH”, the “soluble on expression in E. coli” value is “soluble”.

Turning to “MRKIIHVDMDCFFAAVEMRDNPALRDIPIAIGGSRERRGVISTANYPARKFGVRSAMPTGMALKLCPHLTLLPGRFDAYKEASNHIREIFSRYTSRIEPLSLDEAYLDVTDSVHCHGSATLIAQEIRQTIFNELQLTASAGVAPVKFLAKIASDMNKPNGQFVITPAEVPAFLQTLPLAKIPGVGKVSAAKLEAMGLRTCGDVQKCDLVMLLKRFGKFGRILWERSQGIDERDVNSERLRKSVGVERTMAEDIHHWSECEAIIERLYPELERRLAKVKPDLLIARQGVKLKFDDFQQTTQEHVWPRLNKADLIATARKTWDERRGGRGVRLVGLHVTLLDPQMERQLVLGL”, the “soluble on expression in E. coli” value was “soluble”.

As to “MRKIVLFGDSITAGYLDEAVSPVLVDLVKRDIAAMGLEEVAVINAGMPGDTTEDGLKRLNKEVLIEKPDEVVIFFGANDASLDRNITVATFRENLETMIHEIGSEKVILITPPYADSGRRPERPQTRIKELVKVAQEVGAAHNLPVIDLYKAMTVYPGTDEFLQADGLHFSQVGYELLGALIVREIKGRLKPKQA”, the “soluble on expression in E. coli” value is “soluble”.

For the sequence “MRKLWVAFFASLVLAMPSWVSARSHAGGGADVHLPVGHMWKHEGLDEQKWMEMVQKYTPEQEEEWKKVLDERNALRQQLNDENVKQAIKEKCKKMKKEREAALDRLIDQLVDKKITKEQFKKEWKQLHKKKQWMTKEEKQQLHLLHEQTRQAMENNDQEAMKKLLPQWLDHMKKKNERLAKWLQEVKQG”, the “soluble on expression in E. coli” value is listed as “not soluble”.

As to “MRKMADPLVPKEALEWFKSKGIKPGFDYRDVWKEEQANAFTVAKMLNADLLVEVKQLVEDAIGQGQTFEQFRDILKPLLVKSGWWGVQTMQDPLTDETKLVQLGSEGRIKTIYKTNMRTARSAGQWERIQRTKRTMPYLLYQLGPSEQHRIEHLKWNNTLLPADDPWWDVHMTPNGWGCKCWIRQVSQYEADKLIAAGTVKTTVPASKNKQWVNRRTGEVEVLPEGIDPGWNYNPGKNREKMLAADLALKESRMRQTLANGS”, the “soluble on expression in E. coli” value is “soluble”.

As for “MRKMMPMNPKQLKKLMKQLDMRQLEGVKEVIIKMEDREIIIKEPIVTVIKAMGEKMYQIAGGSEEEKAIINISEEDIKLVMEQAGVDYETAKKALEETGGDLAEAILRLTDSGVE”, the “soluble on expression in E. coli” value is reported as “soluble”.

“MRKQALHPRTAVINKAQKNQSKRARSDALLWLAANFPEAFDNSLRIRPLKIGIMSDILQHAEKAEQVGISKSKLREAVVLFTRRLDYLACLKAREVRIDLHGNPVAEVTEEEAEHASMKIKKRVEKSVKNARKQVNAKAANHSHVNSQPSAVSSVKPMNSFDSHPEPLLPIYPLRSSTYASQNVAMQSAKSPSVVVKHKAPKQYDPDAVARLKEKLGLSRKAEEKKETTE”: the “soluble on expression in E. coli” value was “not soluble”.

Take “MRKRLSAPELRLSLTKGPGNDGASPTQSAPSSPDGSSDLEIDELETPSDSEQLDSGHEFEWEDELPRAEGLGTSETAERLGRGCMWDVTGEDGHHWRVFRMGPREQRVDMTVIEPYKKVLSHGGYHGDGLNAVILFASCYLPRSSIPNYTYVMEHLFRYMVGTLELLVAENYLLVHLSGGTSRAQVPPLSWIRQCYRTLDRRLRKNLRALVVVHATWYVKAFLALLRPFISSKFTRKIRFLDSLGELAQLISLDQVHIPEAVRQLDRDLHGSGGT”: the “soluble on expression in E. coli” value is reported as “not soluble”.

The record behind these values is the DeepSol protein solubility set.
